# Source: patent EP4775675A1
# What was measured:
# [1] = target: cynomolgus monkey BDCA-2 on cells (Jurkat-cynoBDCA-2 cells; cynomolgus monkey pDCs) (cynomolgus monkey); assay: flow cytometry on Jurkat-cynoBDCA-2 cells
# [2] = target: human BDCA-2 on cells (Jurkat-hBDCA-2 cells; human pDCs; human PBMCs) (human) (UniProt Q8WTT0); assay: flow cytometry on Jurkat-hBDCA-2 cells
# human BDCA-2 on cells (Jurkat-hBDCA-2 cells; human pDCs; human PBMCs) (human), sequence (Q8WTT0 whole entry): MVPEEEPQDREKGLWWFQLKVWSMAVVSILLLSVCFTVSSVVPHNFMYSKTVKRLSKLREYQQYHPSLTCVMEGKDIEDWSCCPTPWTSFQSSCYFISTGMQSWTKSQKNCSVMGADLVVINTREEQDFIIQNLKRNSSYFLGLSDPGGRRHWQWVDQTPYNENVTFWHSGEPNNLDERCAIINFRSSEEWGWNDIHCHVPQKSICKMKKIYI
# cynomolgus monkey BDCA-2 on cells (Jurkat-cynoBDCA-2 cells; cynomolgus monkey pDCs) (cynomolgus monkey), sequence (chain, as listed by the source): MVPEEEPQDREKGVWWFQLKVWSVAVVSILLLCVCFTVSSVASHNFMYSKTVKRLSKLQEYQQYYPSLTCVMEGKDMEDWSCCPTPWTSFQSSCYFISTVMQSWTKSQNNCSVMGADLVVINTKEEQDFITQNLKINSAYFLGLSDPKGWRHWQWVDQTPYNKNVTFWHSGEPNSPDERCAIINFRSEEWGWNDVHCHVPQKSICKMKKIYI
substance,measurement,setting,value
Isotype control (antibody),MFI,[1],67.3
same,MFI,[2],17.5
